Patent US20260201008A1, “SECRETIN-DERIVED GLP1R SELECTIVE AGONISTS” (GUBRA A/S, priority 2023, published 2026)
Values belong to the binder of their own block, whether it stands above or below them. Numbered stars: 1 amine (or outer) side, 2 acyl side, 3 side chain; on linkers, the order of the positions; unused ones are H or OH. Square brackets hold non-standard residues; d marks the D form. Side chains are listed from the residue outwards. Ends that are not written are not given here. * marks the point of attachment. C20 diacid = O=C(O)CCCCCCCCCCCCCCCCCCC(=O)*; γGlu = O=C(O)[C@H](CCC(=O)[*:2])N[*:1]; AEEA = NCCOCCOCC(=O)O; Aib = CC(C)(N)C(=O)O

Key:
[1] = molecular target: human GLP-1 receptor (hGLP1R) (human, UniProt P43220 24-463); experiment: cell-based or functional assay
[2] = molecular target: human secretin receptor (hSCTR) (human, UniProt P47872 23-440); experiment: cell-based or functional assay
human secretin receptor (hSCTR), sequence (P47872 23-440): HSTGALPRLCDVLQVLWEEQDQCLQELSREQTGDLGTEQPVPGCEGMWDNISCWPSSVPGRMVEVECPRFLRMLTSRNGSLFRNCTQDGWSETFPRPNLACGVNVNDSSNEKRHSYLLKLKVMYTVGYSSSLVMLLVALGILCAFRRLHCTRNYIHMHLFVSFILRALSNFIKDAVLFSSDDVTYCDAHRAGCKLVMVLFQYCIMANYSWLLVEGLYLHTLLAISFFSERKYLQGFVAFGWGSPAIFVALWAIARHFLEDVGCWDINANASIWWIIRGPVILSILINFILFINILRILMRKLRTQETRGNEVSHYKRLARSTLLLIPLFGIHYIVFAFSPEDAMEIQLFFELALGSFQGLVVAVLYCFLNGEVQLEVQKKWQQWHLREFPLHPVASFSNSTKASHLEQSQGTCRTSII

Binder: H[Aib]EGTFTSDVSYLFEEA[Aib]LQRFLEK([AEEA-AEEA-γGlu-C20 diacid])LV-NH2 [SEQ ID NO: 176]
pEC50 hGLPR1 [1]: 10.5 -log M | pEC50 hSCTR [2]: 5.5 -log M

Binder: H[Aib]EGTFTSDVSFLK([AEEA-AEEA-γGlu-C20 diacid])EEA[Aib]LQRFLEHLV-NH2 [SEQ ID NO: 173]
pEC50 hGLPR1 [1]: 10.9 -log M | pEC50 hSCTR [2]: 6.8 -log M

Binder: H[Aib]IGTFTSDVSYLK([AEEA-AEEA-γGlu-C20 diacid])EEA[Aib]LQRFLEHLV-NH2 [SEQ ID NO: 175]
pEC50 hGLPR1 [1]: 10.5 -log M | pEC50 hSCTR [2]: 5.1 -log M

Binder: H[Aib]EGTFTSDVSILK([AEEA-AEEA-γGlu-C20 diacid])EEA[Aib]LQRFLEHLV-NH2 [SEQ ID NO: 172]
pEC50 hGLPR1 [1]: 10.8 -log M | pEC50 hSCTR [2]: 7.7 -log M

Binder: H[Aib]LGTFTSDVSYLK([AEEA-AEEA-γGlu-C20 diacid])EEA[Aib]LQRFLEHLV-NH2 [SEQ ID NO: 170]
pEC50 hGLPR1 [1]: 10.6 -log M | pEC50 hSCTR [2]: 4.6 -log M

B4: SEQ ID NO: 177 (peptide)
peptide: H[Aib]EGTFTSDVSFLLEGAALQRFIQWLV-NH2
modifications: N-terminus assumed
SMILES: CC[C@H](C)[C@H](NC(=O)[C@H](Cc1ccccc1)NC(=O)[C@H](CCCNC(=N)N)NC(=O)[C@H](CCC(N)=O)NC(=O)[C@H](CC(C)C)NC(=O)[C@H](C)NC(=O)[C@H](C)NC(=O)CNC(=O)[C@H](CCC(=O)O)NC(=O)[C@H](CC(C)C)NC(=O)[C@H](CC(C)C)NC(=O)[C@H](Cc1ccccc1)NC(=O)[C@H](CO)NC(=O)[C@@H](NC(=O)[C@H](CC(=O)O)NC(=O)[C@H](CO)NC(=O)[C@@H](NC(=O)[C@H](Cc1ccccc1)NC(=O)[C@@H](NC(=O)CNC(=O)[C@H](CCC(=O)O)NC(=O)C(C)(C)NC(=O)[C@@H](N)Cc1c[nH]cn1)[C@@H](C)O)[C@@H](C)O)C(C)C)C(=O)N[C@@H](CCC(N)=O)C(=O)N[C@@H](Cc1c[nH]c2ccccc12)C(=O)N[C@@H](CC(C)C)C(=O)N[C@H](C(N)=O)C(C)C
pEC50 hGLPR1 [1]: 10.8 -log M | pEC50 hSCTR [2]: 6.3 -log M

Binder: H[Aib]HGTFTSDVSYLK([AEEA-AEEA-γGlu-C20 diacid])EEA[Aib]LQRFLEHLV-NH2 [SEQ ID NO: 171]
pEC50 hGLPR1 [1]: 9.8 -log M | pEC50 hSCTR [2]: 4.5 -log M

Binder: H[Aib]EGTFTSDVSELK([AEEA-AEEA-γGlu-C20 diacid])E[Aib]AAEQRFLEHLV-NH2 [SEQ ID NO: 18]
pEC50 hGLPR1 [1]: 10.5 -log M | pEC50 hSCTR [2]: 6.3 -log M

Binder: H[Aib]EGTFTSDVSWLK([AEEA-AEEA-γGlu-C20 diacid])EEA[Aib]LQRFLEHLV-NH2 [SEQ ID NO: 174]
pEC50 hGLPR1 [1]: 10.9 -log M | pEC50 hSCTR [2]: 7 -log M

More lines, now with the values ahead:

pEC50 hGLPR1 [1]: 10.1 -log M | pEC50 hSCTR [2]: 6.3 -log M
B1: SEQ ID NO: 179 (peptide)
peptide: H[Aib]EGTFTSDVS[Aib]LLEGAALQRFIQWLV-NH2
modifications: N-terminus assumed
SMILES: CC[C@H](C)[C@H](NC(=O)[C@H](Cc1ccccc1)NC(=O)[C@H](CCCNC(=N)N)NC(=O)[C@H](CCC(N)=O)NC(=O)[C@H](CC(C)C)NC(=O)[C@H](C)NC(=O)[C@H](C)NC(=O)CNC(=O)[C@H](CCC(=O)O)NC(=O)[C@H](CC(C)C)NC(=O)[C@H](CC(C)C)NC(=O)C(C)(C)NC(=O)[C@H](CO)NC(=O)[C@@H](NC(=O)[C@H](CC(=O)O)NC(=O)[C@H](CO)NC(=O)[C@@H](NC(=O)[C@H](Cc1ccccc1)NC(=O)[C@@H](NC(=O)CNC(=O)[C@H](CCC(=O)O)NC(=O)C(C)(C)NC(=O)[C@@H](N)Cc1c[nH]cn1)[C@@H](C)O)[C@@H](C)O)C(C)C)C(=O)N[C@@H](CCC(N)=O)C(=O)N[C@@H](Cc1c[nH]c2ccccc12)C(=O)N[C@@H](CC(C)C)C(=O)N[C@H](C(N)=O)C(C)C

pEC50 hGLPR1 [1]: 10.3 -log M | pEC50 hSCTR [2]: 6.8 -log M
B2: SEQ ID NO: 183 (peptide)
peptide: H[Aib]EGTFTSDVSWLLEGAALQRFIQWLV-NH2
modifications: N-terminus assumed
SMILES: CC[C@H](C)[C@H](NC(=O)[C@H](Cc1ccccc1)NC(=O)[C@H](CCCNC(=N)N)NC(=O)[C@H](CCC(N)=O)NC(=O)[C@H](CC(C)C)NC(=O)[C@H](C)NC(=O)[C@H](C)NC(=O)CNC(=O)[C@H](CCC(=O)O)NC(=O)[C@H](CC(C)C)NC(=O)[C@H](CC(C)C)NC(=O)[C@H](Cc1c[nH]c2ccccc12)NC(=O)[C@H](CO)NC(=O)[C@@H](NC(=O)[C@H](CC(=O)O)NC(=O)[C@H](CO)NC(=O)[C@@H](NC(=O)[C@H](Cc1ccccc1)NC(=O)[C@@H](NC(=O)CNC(=O)[C@H](CCC(=O)O)NC(=O)C(C)(C)NC(=O)[C@@H](N)Cc1c[nH]cn1)[C@@H](C)O)[C@@H](C)O)C(C)C)C(=O)N[C@@H](CCC(N)=O)C(=O)N[C@@H](Cc1c[nH]c2ccccc12)C(=O)N[C@@H](CC(C)C)C(=O)N[C@H](C(N)=O)C(C)C

pEC50 hGLPR1 [1]: 10.2 -log M | pEC50 hSCTR [2]: 7.2 -log M
B3: SEQ ID NO: 178 (peptide)
peptide: H[Aib]EGTFTSDVSRLLEGAALQRFIQWLV-NH2
modifications: N-terminus assumed
SMILES: CC[C@H](C)[C@H](NC(=O)[C@H](Cc1ccccc1)NC(=O)[C@H](CCCNC(=N)N)NC(=O)[C@H](CCC(N)=O)NC(=O)[C@H](CC(C)C)NC(=O)[C@H](C)NC(=O)[C@H](C)NC(=O)CNC(=O)[C@H](CCC(=O)O)NC(=O)[C@H](CC(C)C)NC(=O)[C@H](CC(C)C)NC(=O)[C@H](CCCNC(=N)N)NC(=O)[C@H](CO)NC(=O)[C@@H](NC(=O)[C@H](CC(=O)O)NC(=O)[C@H](CO)NC(=O)[C@@H](NC(=O)[C@H](Cc1ccccc1)NC(=O)[C@@H](NC(=O)CNC(=O)[C@H](CCC(=O)O)NC(=O)C(C)(C)NC(=O)[C@@H](N)Cc1c[nH]cn1)[C@@H](C)O)[C@@H](C)O)C(C)C)C(=O)N[C@@H](CCC(N)=O)C(=O)N[C@@H](Cc1c[nH]c2ccccc12)C(=O)N[C@@H](CC(C)C)C(=O)N[C@H](C(N)=O)C(C)C

pEC50 hGLPR1 [1]: 10.3 -log M | pEC50 hSCTR [2]: 6.8 -log M
B5: SEQ ID NO: 182 (peptide)
peptide: H[Aib]EGTFTSDVSGLLEGAALQRFIQWLV-NH2
modifications: N-terminus assumed
SMILES: CC[C@H](C)[C@H](NC(=O)[C@H](Cc1ccccc1)NC(=O)[C@H](CCCNC(=N)N)NC(=O)[C@H](CCC(N)=O)NC(=O)[C@H](CC(C)C)NC(=O)[C@H](C)NC(=O)[C@H](C)NC(=O)CNC(=O)[C@H](CCC(=O)O)NC(=O)[C@H](CC(C)C)NC(=O)[C@H](CC(C)C)NC(=O)CNC(=O)[C@H](CO)NC(=O)[C@@H](NC(=O)[C@H](CC(=O)O)NC(=O)[C@H](CO)NC(=O)[C@@H](NC(=O)[C@H](Cc1ccccc1)NC(=O)[C@@H](NC(=O)CNC(=O)[C@H](CCC(=O)O)NC(=O)C(C)(C)NC(=O)[C@@H](N)Cc1c[nH]cn1)[C@@H](C)O)[C@@H](C)O)C(C)C)C(=O)N[C@@H](CCC(N)=O)C(=O)N[C@@H](Cc1c[nH]c2ccccc12)C(=O)N[C@@H](CC(C)C)C(=O)N[C@H](C(N)=O)C(C)C

pEC50 hGLPR1 [1]: 10.3 -log M | pEC50 hSCTR [2]: 6.7 -log M
B6: SEQ ID NO: 181 (peptide)
peptide: H[Aib]EGTFTSDVSYLLEGAALQRFIQWLV-NH2
modifications: N-terminus assumed
SMILES: CC[C@H](C)[C@H](NC(=O)[C@H](Cc1ccccc1)NC(=O)[C@H](CCCNC(=N)N)NC(=O)[C@H](CCC(N)=O)NC(=O)[C@H](CC(C)C)NC(=O)[C@H](C)NC(=O)[C@H](C)NC(=O)CNC(=O)[C@H](CCC(=O)O)NC(=O)[C@H](CC(C)C)NC(=O)[C@H](CC(C)C)NC(=O)[C@H](Cc1ccc(O)cc1)NC(=O)[C@H](CO)NC(=O)[C@@H](NC(=O)[C@H](CC(=O)O)NC(=O)[C@H](CO)NC(=O)[C@@H](NC(=O)[C@H](Cc1ccccc1)NC(=O)[C@@H](NC(=O)CNC(=O)[C@H](CCC(=O)O)NC(=O)C(C)(C)NC(=O)[C@@H](N)Cc1c[nH]cn1)[C@@H](C)O)[C@@H](C)O)C(C)C)C(=O)N[C@@H](CCC(N)=O)C(=O)N[C@@H](Cc1c[nH]c2ccccc12)C(=O)N[C@@H](CC(C)C)C(=O)N[C@H](C(N)=O)C(C)C

pEC50 hGLPR1 [1]: 10.6 -log M | pEC50 hSCTR [2]: 6.6 -log M
B7: SEQ ID NO: 184 (peptide)
peptide: H[Aib]EGTFTSDVSVLLEGAALQRFIQWLV-NH2
modifications: N-terminus assumed
SMILES: CC[C@H](C)[C@H](NC(=O)[C@H](Cc1ccccc1)NC(=O)[C@H](CCCNC(=N)N)NC(=O)[C@H](CCC(N)=O)NC(=O)[C@H](CC(C)C)NC(=O)[C@H](C)NC(=O)[C@H](C)NC(=O)CNC(=O)[C@H](CCC(=O)O)NC(=O)[C@H](CC(C)C)NC(=O)[C@H](CC(C)C)NC(=O)[C@@H](NC(=O)[C@H](CO)NC(=O)[C@@H](NC(=O)[C@H](CC(=O)O)NC(=O)[C@H](CO)NC(=O)[C@@H](NC(=O)[C@H](Cc1ccccc1)NC(=O)[C@@H](NC(=O)CNC(=O)[C@H](CCC(=O)O)NC(=O)C(C)(C)NC(=O)[C@@H](N)Cc1c[nH]cn1)[C@@H](C)O)[C@@H](C)O)C(C)C)C(C)C)C(=O)N[C@@H](CCC(N)=O)C(=O)N[C@@H](Cc1c[nH]c2ccccc12)C(=O)N[C@@H](CC(C)C)C(=O)N[C@H](C(N)=O)C(C)C

pEC50 hGLPR1 [1]: 10.8 -log M | pEC50 hSCTR [2]: 6.7 -log M
B8: SEQ ID NO: 180 (peptide)
peptide: H[Aib]EGTFTSDVSELLEGAALQRFIQWLV-NH2
modifications: N-terminus assumed
SMILES: CC[C@H](C)[C@H](NC(=O)[C@H](Cc1ccccc1)NC(=O)[C@H](CCCNC(=N)N)NC(=O)[C@H](CCC(N)=O)NC(=O)[C@H](CC(C)C)NC(=O)[C@H](C)NC(=O)[C@H](C)NC(=O)CNC(=O)[C@H](CCC(=O)O)NC(=O)[C@H](CC(C)C)NC(=O)[C@H](CC(C)C)NC(=O)[C@H](CCC(=O)O)NC(=O)[C@H](CO)NC(=O)[C@@H](NC(=O)[C@H](CC(=O)O)NC(=O)[C@H](CO)NC(=O)[C@@H](NC(=O)[C@H](Cc1ccccc1)NC(=O)[C@@H](NC(=O)CNC(=O)[C@H](CCC(=O)O)NC(=O)C(C)(C)NC(=O)[C@@H](N)Cc1c[nH]cn1)[C@@H](C)O)[C@@H](C)O)C(C)C)C(=O)N[C@@H](CCC(N)=O)C(=O)N[C@@H](Cc1c[nH]c2ccccc12)C(=O)N[C@@H](CC(C)C)C(=O)N[C@H](C(N)=O)C(C)C
